In article PMC9192595, “Dynamic interaction of BRCA2 with telomeric G-quadruplexes underlies telomere replication homeostasis” one finds binding result, binding signal and Kd data, which are given here for one molecule.

The target of one data set is RAD51 (human, UniProt Q06609 1-339). Nature of the data set: EMSA; ATP; facilitated by BRCA2OB, about constant with dose; EMSA: 10 nM probe, 50 mM Tris-HCl pH 7.5, 100 mM KCl, 2 mM b-ME, 10% glycerol, probe pre-incubated 37 C, gel 4 C (RAD51: +1 mM MgCl2, 2 mM ATP); smFRET: 50 mM Tris-HCl pH 7.9, 100 mM KCl, 20 mM NaCl, 1 mM DTT, 0.1 mg/ml BSA, 9% glycerol, 37 C. Particulars: protein: commercial; label: 5' 32P; intramolecular G4. For orientation: In EMSA bound probe runs differently from free probe, usually more slowly.
Chain of RAD51 (Q06609 whole entry): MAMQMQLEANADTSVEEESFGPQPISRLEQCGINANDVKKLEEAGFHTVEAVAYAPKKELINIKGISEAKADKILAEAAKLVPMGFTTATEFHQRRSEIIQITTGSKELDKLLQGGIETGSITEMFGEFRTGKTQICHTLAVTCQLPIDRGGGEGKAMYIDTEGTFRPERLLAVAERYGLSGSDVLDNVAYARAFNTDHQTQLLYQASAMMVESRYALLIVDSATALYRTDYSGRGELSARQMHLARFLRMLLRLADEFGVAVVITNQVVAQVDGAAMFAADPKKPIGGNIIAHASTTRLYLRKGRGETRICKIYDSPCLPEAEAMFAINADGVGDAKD

Data set [1] has as its target T1, BRCA2OB (human, UniProt P51587 2665-3197).
T1 sequence: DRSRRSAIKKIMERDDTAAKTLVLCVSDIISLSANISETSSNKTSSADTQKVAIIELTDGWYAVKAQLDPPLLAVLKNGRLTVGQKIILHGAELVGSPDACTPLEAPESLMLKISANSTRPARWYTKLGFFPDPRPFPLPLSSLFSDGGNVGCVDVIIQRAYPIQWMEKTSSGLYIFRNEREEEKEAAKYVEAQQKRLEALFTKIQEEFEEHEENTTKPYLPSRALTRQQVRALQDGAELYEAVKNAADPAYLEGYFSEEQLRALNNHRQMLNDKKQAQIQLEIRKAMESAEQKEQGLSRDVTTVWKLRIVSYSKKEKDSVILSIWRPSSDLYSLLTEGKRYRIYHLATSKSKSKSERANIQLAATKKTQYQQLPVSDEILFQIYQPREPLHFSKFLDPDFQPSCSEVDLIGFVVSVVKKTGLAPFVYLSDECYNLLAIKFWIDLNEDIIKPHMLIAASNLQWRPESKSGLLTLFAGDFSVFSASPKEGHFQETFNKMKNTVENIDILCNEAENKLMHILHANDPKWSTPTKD
Nature of the data set: EMSA; 100 mM KCl; EMSA: 10 nM probe, 50 mM Tris-HCl pH 7.5, 100 mM KCl, 2 mM b-ME, 10% glycerol, probe pre-incubated 37 C, gel 4 C (RAD51: +1 mM MgCl2, 2 mM ATP); smFRET: 50 mM Tris-HCl pH 7.9, 100 mM KCl, 20 mM NaCl, 1 mM DTT, 0.1 mg/ml BSA, 9% glycerol, 37 C. The note with it: protein: recombinant; tags: N-MBP, C-6xHis; label: 5' 32P; intramolecular G4.

Data set [2] addresses T1, BRCA2OB. The description is as above. The note with it: protein: recombinant; tags: N-MBP, C-6xHis; label: 5' 32P; intramolecular G4. This is another data set of the same source.
Another data set has as its target T2, POT1OB (human, UniProt Q9NUX5 10-278).
T2 sequence: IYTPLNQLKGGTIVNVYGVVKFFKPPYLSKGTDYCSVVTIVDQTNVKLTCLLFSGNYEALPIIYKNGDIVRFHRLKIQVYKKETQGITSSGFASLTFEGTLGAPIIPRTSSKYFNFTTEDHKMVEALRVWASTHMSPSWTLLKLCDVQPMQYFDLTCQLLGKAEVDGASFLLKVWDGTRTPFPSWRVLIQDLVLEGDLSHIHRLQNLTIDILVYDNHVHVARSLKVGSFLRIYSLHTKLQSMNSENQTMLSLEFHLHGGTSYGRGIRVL
The data set is described as above. Particulars: protein: recombinant; tags: N-MBP, C-6xHis; label: 5' 32P; intramolecular G4.

What is called Kd is the free concentration of one partner at which half of the binding sites on the other are occupied at equilibrium, for simple one-to-one binding. In the case of GGTTTGGGTTTGGGTTTGGGTTTGGGTTTG (structured_DNA) [TelG5TTT], the results for the binding result with RAD51 and with POT1OB were “binds” and “no binding”, respectively. Further, in the data set with BRCA2OB [1], the binding signal was ~9 fold vs TelG5. In the data set with BRCA2OB [2], the equilibrium dissociation constant (Kd) worked out at 0.456 µM.
